Measurements as given in patent US20080220450A1 (published 2008).

Experiments:
Assay in all cases: binding to purified HLA
[1] = biological target: HLA-DR6(13) (human)
[2] = biological target: DRB1*0701 (DR7)
[3] = biological target: DRB4*0101 (DRw53)
[4] = biological target: DRB5*0101 (DR2w2β2)
[5] = biological target: DQA1*0501/DQB1*0201 (DQ2)
[6] = biological target: DRB1*0802 (DR8w2)
[7] = biological target: DRB3*0101 (DR52a)
[8] = biological target: DRB1*0901 (DR9)
[9] = biological target: DRB1*0404 (DR4w14)
[10] = biological target: DRB1*0405 (DR4w15)
[11] = biological target: DQA1*0301/DQB1*0301 (DQ3.1)
[12] = biological target: DQA1*0301/DQB1*0302 (DQ3.2)
[13] = biological target: DRB1*0401 (DR4w4)
[14] = biological target: DRB1*0101 (DR1) (human, UniProt P01903 26-254)
[15] = biological target: DRB1*1101 (DR5w11)
[16] = biological target: DRB1*1501 (DR2w2β1) (human)
[17] = biological target: DRB1*0301 (DR3w17)
[18] = biological target: DRB1*1201 (DR5w12)

SYPARYANAMAVGAT [B. lentus subtilisin epitope peptide, amino acids 160-174]
IC50 [1]: 559 nM

SYPARYANAMAVGAT [B. lentus .160]
IC50 [2]: 138 nM
IC50 [3]: 8260 nM
IC50 [4]: 1730 nM
IC50 [5]: 1300 nM
IC50 [6]: 2030 nM
IC50 [7]: 6160 nM
IC50 [8]: 164 nM
IC50 [9]: 5540 nM
IC50 [10]: 1350 nM
IC50 [11]: 63 nM
IC50 [12]: 1050 nM
IC50 [13]: 142 nM
IC50 [14]: 13 nM
IC50 [15]: 5550 nM

GSISYPARYANAMAV [B. lentus subtilisin epitope peptide, amino acids 157-171]
IC50 [1]: 2010 nM

GTVAALNNSIGVLGV [BPN' Y217L .70]
IC50 [2]: 154 nM
IC50 [3]: 31 nM
IC50 [4]: 15700 nM
IC50 [16]: 21 nM
IC50 [5]: 670 nM
IC50 [6]: 1710 nM
IC50 [7]: 2010 nM
IC50 [8]: 46 nM
IC50 [17]: 8740 nM
IC50 [9]: 5.7 nM
IC50 [10]: 166 nM
IC50 [11]: 440 nM
IC50 [18]: 80 nM
IC50 [12]: 2070 nM
IC50 [13]: 33 nM
IC50 [14]: 6.5 nM
IC50 [15]: 2380 nM

NGIEWAIANNMDVIN [B. amyloliquifaciens subtilisin BPN' Y217L epitope peptide, amino acids 109-123]
IC50 [1]: 9.8 nM

GSISYPARYANAMAV [B. lentus 157]
IC50 [2]: 724 nM
IC50 [3]: > 9670 nM
IC50 [16]: 865 nM
IC50 [5]: 6160 nM
IC50 [6]: > 16300 nM
IC50 [7]: > 9430 nM
IC50 [8]: 1480 nM
IC50 [17]: 16400 nM
IC50 [9]: 7580 nM
IC50 [10]: 6780 nM
IC50 [11]: 6010 nM
IC50 [12]: 5010 nM
IC50 [13]: 4790 nM
IC50 [14]: 1060 nM

NGIEWAIANNMDVIN [BPN' Y217L .109]
IC50 [2]: 58 nM
IC50 [3]: 1070 nM
IC50 [4]: 1020 nM
IC50 [16]: 683 nM
IC50 [5]: 97 nM
IC50 [6]: 2190 nM
IC50 [7]: 119 nM
IC50 [8]: 43 nM
IC50 [9]: 166 nM
IC50 [10]: 37 nM
IC50 [11]: 2180 nM
IC50 [18]: 1240 nM
IC50 [12]: 80 nM
IC50 [13]: 30 nM
IC50 [14]: 8.8 nM
IC50 [15]: 3020 nM
